Sequences and labels used below:
B1: Mucin-1 (Homo sapiens), P15941-12 (parent)
chain: MTPGTQSPFFLLLLLTVLTATTAPKPATVVTGSGHASSTPGGEKETSATQRSSVPSSTEKNAFNSSLEDPSTDYYQELQRDISEMAVCQCRRKNYGQLDIFPARDTYHPMSEYPTYHTHGRYVPPSSTDRSPYEKVSAGNGGSSLSYTNPAVAATSANL

Variants of B1 are the subject of the assay. The note with it: with abl1_human ABL1, P00519.
abl1_human ABL1, P00519, sequence (P00519 whole entry): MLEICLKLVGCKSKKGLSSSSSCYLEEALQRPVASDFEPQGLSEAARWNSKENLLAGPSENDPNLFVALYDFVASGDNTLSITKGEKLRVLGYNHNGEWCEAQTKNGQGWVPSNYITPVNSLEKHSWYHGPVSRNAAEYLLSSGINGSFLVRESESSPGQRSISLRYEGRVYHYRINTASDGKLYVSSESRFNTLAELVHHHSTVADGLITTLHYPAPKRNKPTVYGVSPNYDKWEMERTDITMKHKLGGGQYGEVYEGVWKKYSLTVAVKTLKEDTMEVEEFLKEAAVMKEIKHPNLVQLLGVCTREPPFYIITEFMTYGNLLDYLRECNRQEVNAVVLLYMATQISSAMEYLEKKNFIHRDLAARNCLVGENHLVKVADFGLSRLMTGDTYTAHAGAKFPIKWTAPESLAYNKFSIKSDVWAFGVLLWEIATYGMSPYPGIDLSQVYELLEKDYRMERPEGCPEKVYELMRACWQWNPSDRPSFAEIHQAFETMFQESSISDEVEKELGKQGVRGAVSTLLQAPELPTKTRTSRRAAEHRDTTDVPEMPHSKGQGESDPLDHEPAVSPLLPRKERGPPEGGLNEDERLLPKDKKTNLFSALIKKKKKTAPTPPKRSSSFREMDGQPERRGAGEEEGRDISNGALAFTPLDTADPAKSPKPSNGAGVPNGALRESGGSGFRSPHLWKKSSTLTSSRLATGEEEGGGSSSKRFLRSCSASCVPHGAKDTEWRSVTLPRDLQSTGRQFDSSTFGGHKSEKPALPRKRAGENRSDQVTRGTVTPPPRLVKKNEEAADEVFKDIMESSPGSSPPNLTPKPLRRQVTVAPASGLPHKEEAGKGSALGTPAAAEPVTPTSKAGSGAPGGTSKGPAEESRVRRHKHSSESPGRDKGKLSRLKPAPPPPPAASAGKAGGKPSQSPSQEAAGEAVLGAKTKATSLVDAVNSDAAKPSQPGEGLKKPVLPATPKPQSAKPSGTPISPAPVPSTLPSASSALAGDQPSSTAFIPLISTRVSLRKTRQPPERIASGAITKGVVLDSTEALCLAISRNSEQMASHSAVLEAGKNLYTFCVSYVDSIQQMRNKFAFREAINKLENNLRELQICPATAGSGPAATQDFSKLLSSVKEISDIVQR
In the case of MTPGTQSPFFLLLLLTVLTATTAPKPATVVTGSGHASSTPGGEKETSATQRSSVPSSTEKNAFNSSLEDPSTDYYQELQRDISEMAVCQCRRKNYGQLDIFPARDTYHPMSEYPTYHTHGRYVPPSSTDRSPYEKVSAGNGGSSLSFTNPAVAATSANL [Y147F], the “effect of a mutation on the interaction” value is recorded as “disrupting interaction”.

The values above are taken from IntAct's records for PubMed 16888623.
